The record followed here is US20230192839A1, “ANTIBODIES HAVING CONDITIONAL AFFINITY AND METHODS OF USE THEREOF” (PFIZER INC., priority 2017, published 2023).

The test system of one experiment is human CD33. The experiment in a line: Biacore SPR binding kinetics of anti-CD33 scFv-Fc clones with or without 10 µM MTX. As to conditions: CD33, 37° C., pH 7.4, scFv-Fc. An excerpt:
The first 4 rounds of panning used biotinylated CD33 antigen captured on streptavidin or neutravidin coated 96-well plates. […] 1536 clones were randomly chosen from the 4th and 5th round of panning against the CD33 antigen and their binding specificity determined by phage ELISA. Clones that specifically bound to CD33 were sequenced and all unique clones were subjected to a phage competition ELISA to assess their relative affinities to CD33 and sensitivity to MTX by measuring their binding strengths in the presence or absence of 10 µM (micromolar) MTX (i.e. in 0 or 10 µM MTX).
All binding kinetics analysis was performed on label-free Biacore surface plasmon biosensors (Biacore T200™ from GE Life Sciences) at 37° C. in 10 mM Hepes pH 7.4, 150 mM NaCl, 0.05% Tween-20 (HBST+), with or without 10 µM MTX. The Biacore data were processed in Biacore T200 Evaluation Software, and the data were double-referenced (Myszka, 1999, J Mol Recognit 12(5):279-284) and fit globally to a simple Langmuir with mass transport model to determine the equilibrium dissociation constant, KD, from the ratio of the kinetic rate constants (KD = koff/kon). In some cases the binding of antigen was very low (or not detectable) in the presence of 10 µM MTX and as a result kinetic rate constants could not be accurately determined. In these cases, a KD (or KD limit) was estimated based on the binding response at the highest analyte concentration tested or based on the typical limit of detection for a Biacore T200.

The test system of another experiment is MV4-11 cells. Put plainly: Sequential rounds of in vitro cytotoxicity assays with changing MTX concentration (reversible inhibition). Type of experiment: cell-based, human. The note with it: Round 0-1 no MTX, then 100 µM MTX at Round 1-2 and Round 2-3; FIGS. 9A and 9B. On the procedure:
The anti-CD33 clones tested in this example were: P03_A01, P07_C04, and P02_D09. In addition, a tool T cell was prepared as described in Example 4, as were untransduced T cells. Also, each of the different conditional CAR T cells described above was generated in triplicate from PBMC cells from three different human donors. The target cell line used in this assay was MV4-11; these cells were transduced to stably express GFP and firefly luciferase, as described in Example 5.
This experiment involved a series of in vitro cytotoxicity assays, in which co-cultures of T cells and MV4-11 target cells were incubated together for multiple rounds of sequential cytotoxicity assays, in which the MTX concentration changed at different rounds of the assays. In vitro cytotoxicity assays were carried out in 24-well plates by co-culturing 200,000 T cells with 200,000 MV4-11 cells, for each different T cells described above. In addition, each of the co-cultures contained either 100 µM MTX or 0 µM MTX at different times, as indicated by the schematics in FIGS. 9A and 9C. In both conditions, 1 mM leucovorin was supplemented to circumvent MTX toxicity. For each round of the assay, co-cultures were maintained in a final volume of 500 µl of RPMI 1640 medium at 37 C with 5% CO2 for 48 hours. At the end of each round, cells were spun down (250 × g, 10 minutes), supernatant was removed, and fresh media containing fresh MV4-11 cells, leucovorin, and optionally MTX were added according to the schematics shown in FIGS. 9A and 9C. Target cell killing was assessed and plotted as described in Example 4.
In comparing the different panels of FIGS. 9A-9D, note that the schematics shown in FIGS. 9A and 9C indicate the MTX concentration in the co-culture at the start of the assay for a given round, whereas the results from that assay are shown the next round number in FIGS. 9B and 9D, respectively. […]

B1: P07_C04: anti-CD33 clone with conditional affinity; VH SEQ ID NO: 25, VL SEQ ID NO: 26; also as scFv in CAR (antibody, V domains shown)
VH: QVQLVESGGGLVQAGGSLRLSCAASRRSSRSWAMHWVRQAPGKGLEWVAVISYDGRLKYYADSVKGRFTISRDNAEYLVYLQMNSLRAEDTAVYYCAAEPDGEGTNGGLDIWGQGTLVTVSS
VL: DIQMTQSPSSLSASVGDRVTITCRASQNISRYLNWYQQKPGKAPKLLIYSASSLQTGVPSRFSGSGSGTDFTLTISSLQPEDFATYYCQQSYSSGAFGQGTKVEIK
modifications: Synthetic Antibody
notes: also as scFv in CAR
With B1, in the experiment with human CD33, the “koff, kinetics toward antigen with 0 µM MTX” value came out at 0.0029 s⁻¹ and the “kon, kinetics toward antigen with 0 µM MTX” value is 95000 M⁻¹ s⁻¹. For the same molecule, in the experiment on human CD33 (10 µM MTX), the “koff, kinetics toward antigen with 10 µM MTX” value worked out at 0.025 s⁻¹ and the “kon, kinetics toward antigen with 10 µM MTX” value worked out at 170000 M⁻¹ s⁻¹. Moreover, the “target cell killing when MTX is added to active CAR T cells ("on" to "off")” value in the experiment with MV4-11 cells was “quick inhibition rates”.

B2: P03_A01: anti-CD33 clone with conditional affinity; VH SEQ ID NO: 19, VL SEQ ID NO: 20; also as scFv in CAR (antibody, V domains shown)
VH: QVQLVESGGGLVQAGGSLRLSCAASRRSSRSWAMHWVRQAPGKGLEWVAVISYDGRLKYYADSVKGRFTISRDNAEYLVYLQMNSLRAEDTAVYYCAAETGSVGLDYWGQGTLVTVSS
VL: DIQMTQSPSSLSASVGDRVTITCRASQGISTYLNWYQQKPGKAPKLLIYGATSLESGVPSRFSGSGSGTDFTLTISSLQPEDFATYYCQQGYSQGTFGQGTKVEIK
modifications: Synthetic Antibody
notes: also as scFv in CAR
As for B2, in the experiment on human CD33, the “koff, kinetics toward antigen with 0 µM MTX” value is 0.0057 s⁻¹ and the “kon, kinetics toward antigen with 0 µM MTX” value was found to be 50000 M⁻¹ s⁻¹. In addition, the “target cell killing when MTX is added to active CAR T cells ("on" to "off")” value in the experiment on MV4-11 cells is reported as “requires two rounds of MTX to be fully inhibited”.
